Test results: patent US20130345145A1, “ATIP3 AND BIOLOGICALLY ACTIVE FRAGMENTS THEREOF FOR USE IN THE TREATMENT OF CANCER” (INSTITUT NATIONAL DE LA SANTE ET DE LA RECHERCHE MEDICALE …, priority 2011, published 2013)

B1: ATIP3a: microtubule-associated tumor suppressor 1 isoform 1, SEQ ID NO: 1 (protein, listed as Homo sapiens)
chain: MTDDNSDDKIEDELQTFFTSDKDGNTHAYNPKSPPTQNSSASSVNWNSANPDDMVVDYETDPAVVTGENISLSLQGVEVFGHEKSSSDFISKQVLDMHKDSICQCPALVGTEKPKYLQHSCHSLEAVEGQSVEPSLPFVWKPNDNLNCAGYCDALELNQTFDMTVDKVNCTFISHHAIGKSQSFHTAGSLPPTGRRSGSTSSLSYSTWTSSHSDKTHARETTYDRESFENPQVTPSEAQDMTYTAFSDVVMQSEVFVSDIGNQCACSSGKVTSEYTDGSQQRLVGEKETQALTPVSDGMEVPNDSALQEFFCLSHDESNSEPHSQSSYRHKEMGQNLRETVSYCLIDDECPLMVPAFDKSEAQVLNPEHKVTETEDTQMVSKGKDLGTQNHTSELILSSPPGQKVGSSFGLTWDANDMVISTDKTMCMSTPVLEPTKVTFSVSPIEATEKCKKVEKGNRGLKNIPDSKEAPVNLCKPSLGKSTIKTNTPIGCKVRKTEIISYPRPNFKNVKAKVMSRAVLQPKDAALSKVTPRPQQTSASSPSSVNSRQQTVLSRTPRSDLNADKKAEILINKTHKQQFNKLITSQAVHVTTHSKNASHRVPRTTSAVKSNQEDVDKASSSNSACETGSVSALFQKIKGILPVKMESAECLEMTYVPNIDRISPEKKGEKENGTSMEKQELKQEIMNETFEYGSLFLGSASKTTTTSGRNISKPDSCGLRQIAAPKAKVGPPVSCLRRNSDNRNPSADRAVSPQRIRRVSSSGKPTSLKTAQSSWVNLPRPLPKSKASLKSPALRRTGSTPSIASTHSELSTYSNNSGNAAVIKYEEKPPKPAFQNGSSGSFYLKPLVSRAHVHLMKTPPKGPSRKNLFTALNAVEKSRQKNPRSLCIQPQTAPDALPPEKTLELTQYKTKCENQSGFILQLKQLLACGNTKFEALTVVIQHLLSEREEALKQHKTLSQELVNLRGELVTASTTCEKLEKARNELQTVYEAFVQQHQAEKTERENRLKEFYTREYEKLRDTYIEEAEKYKMQLQEQFDNLNAAHETSKLEIEASHSEKLELLKKAYEASLSEIKKGHEIEKKSLEDLLSEKQESLEKQINDLKSENDALNEKLKSEEQKRRAREKANLKNPQIMYLEQELESLKAVLEIKNEKLHQQDIKLMKMEKLVDNNTALVDKLKRFQQENEELKARMDKHMAISRQLSTEQAVLQESLEKESKVNKRLSMENEELLWKLHNGDLCSPKRSPTSSAIPLQSPRNSGSFPSPSISPR
modifications: (1)..(409) acidic N-terminal region
B2: D2N: domain of ATIP3BD, amino-acid positions 410-634 of SEQ ID NO: 1, expressed as GFP fusion (protein, listed as Homo sapiens)
chain: GLTWDANDMVISTDKTMCMSTPVLEPTKVTFSVSPIEATEKCKKVEKGNRGLKNIPDSKEAPVNLCKPSLGKSTIKTNTPIGCKVRKTEIISYPRPNFKNVKAKVMSRAVLQPKDAALSKVTPRPQQTSASSPSSVNSRQQTVLSRTPRSDLNADKKAEILINKTHKQQFNKLITSQAVHVTTHSKNASHRVPRTTSAVKSNQEDVDKASSSNSACETGSVSALF
modifications: GFP fusion; (1)..(409) acidic N-terminal region
B3: ATIP3b: microtubule-associated tumor suppressor 1 isoform 2, SEQ ID NO: 6 (protein, listed as Homo sapiens)
chain: MTDDNSDDKIEDELQTFFTSDKDGNTHAYNPKSPPTQNSSASSVNWNSANPDDMVVDYETDPAVVTGENISLSLQGVEVFGHEKSSSDFISKQVLDMHKDSICQCPALVGTEKPKYLQHSCHSLEAVEGQSVEPSLPFVWKPNDNLNCAGYCDALELNQTFDMTVDKVNCTFISHHAIGKSQSFHTAGSLPPTGRRSGSTSSLSYSTWTSSHSDKTHARETTYDRESFENPQVTPSEAQDMTYTAFSDVVMQSEVFVSDIGNQCACSSGKVTSEYTDGSQQRLVGEKETQALTPVSDGMEVPNDSALQEFFCLSHDESNSEPHSQSSYRHKEMGQNLRETVSYCLIDDECPLMVPAFDKSEAQVLNPEHKVTETEDTQMVSKGKDLGTQNHTSELILSSPPGQKVGSSFGLTWDANDMVISTDKTMCMSTPVLEPTKVTFSVSPIEATEKCKKVEKGNRGLKNIPDSKEAPVNLCKPSLGKSTIKTNTPIGCKVRKTEIISYPRPNFKNVKAKVMSRAVLQPKDAALSKVTPRPQQTSASSPSSVNSRQQTVLSRTPRSDLNADKKAEILINKTHKQQFNKLITSQAVHVTTHSKNASHRVPRTTSAVKSNQEDVDKASSSNSACETGSVSALFQKIKGILPVKMESAECLEMTYVPNIDRISPEKKGEKENGTSMEKQELKQEIMNETFEYGSLFLGSASKTTTTSGRNISKPDSCGLRQIAAPKAKVGPPVSCLRRNSDNRNPSADRAVSPQRIRRVSSSAGNAAVIKYEEKPPKPAFQNGSSGSFYLKPLVSRAHVHLMKTPPKGPSRKNLFTALNAVEKSRQKNPRSLCIQPQTAPDALPPEKTLELTQYKTKCENQSGFILQLKQLLACGNTKFEALTVVIQHLLSEREEALKQHKTLSQELVNLRGELVTASTTCEKLEKARNELQTVYEAFVQQHQAEKTERENRLKEFYTREYEKLRDTYIEEAEKYKMQLQEQFDNLNAAHETSKLEIEASHSEKLELLKKAYEASLSEIKKGHEIEKKSLEDLLSEKQESLEKQINDLKSENDALNEKLKSEEQKRRAREKANLKNPQIMYLEQELESLKAVLEIKNEKLHQQDIKLMKMEKLVDNNTALVDKLKRFQQENEELKARMDKHMAISRQLSTEQAVLQESLEKESKVNKRLSMENEELLWKLHNGDLCSPKRSPTSSAIPLQSPRNSGSFPSPSISPR
modifications: (1)..(409) acidic N-terminal region
B4: D2C: domain of ATIP3BD, amino-acid positions 705-874 of SEQ ID NO: 1, expressed as GFP fusion (protein, listed as Homo sapiens)
chain: TTSGRNISKPDSCGLRQIAAPKAKVGPPVSCLRRNSDNRNPSADRAVSPQRIRRVSSSGKPTSLKTAQSSWVNLPRPLPKSKASLKSPALRRTGSTPSIASTHSELSTYSNNSGNAAVIKYEEKPPKPAFQNGSSGSFYLKPLVSRAHVHLMKTPPKGPSRKNLFTALNA
modifications: GFP fusion; (1)..(409) acidic N-terminal region

Experiments:
[1] = tested on: human breast cancer MCF-7 cells; assay: Clonogenicity experiments; type: cell-based; conditions: for cell proliferation / number of G418-resistant colonies: MCF-7 transfected with GFP fusion, G418 selection 3 weeks, compared to GFP; for inhibitory effect on colony number relative to that of GFP-ATIP3: MCF7, FIG. 12
Method: For clonogenicity experiments, human breast cancer MCF-7 cells were transfected for 24 h with […] pEGFP-C1 vector or 2 μg of pEGFP-ATIP3BD cDNA. Similar transfection efficiency (50%) was assessed by FACS analysis and cell viability was verified using trypan blue. Cells were then plated at various dilutions in 12 well plates and transfectants were selected by adding geneticin (G418, 1 mg/ml, Gibco) in fresh medium twice a week for 3 weeks. Resistant colonies were stained with 0.5% crystal violet (Sigma) and counted.
The ability of human MCF7 breast cancer cells to form colonies following expression of minimal domains D2N and D2C was analyzed by clonogenicity experiments as described before (see example 2).

microtubule cytoskeleton = assay: Immunofluorescence intracellular localization in RPE1 cells; type: cell-based, Human; conditions: RPE1 cells transfected 24 hrs, data not shown
Method: Immunofluorescence study was performed as example 2. Briefly, Human retinal pigment epithelial (RPE1) cells were transfected for 24 hrs with GFP-D2N, GFP-D2C or GFP-D2CC constructs prior to fixation in ice-cold methanol and incubation with anti-GFP antibodies as described (page 21, lines 1-9).

Row | Molecule | cell proliferation / number of G418-resistant colonies [1] | intracellular localization (microtubule cytoskeleton) | inhibitory effect on colony number relative to that of GFP-ATIP3 [1] [%]
1 | B1 | inhibit cell proliferation and reduce cancer cell growth | – | –
2 | B2 | strongly reduces the number of G418-resistant colonies | associate with the microtubule cytoskeleton | 71
3 | B3 | inhibit cell proliferation and reduce cancer cell growth | – | –
4 | B4 | strongly reduces the number of G418-resistant colonies | associate with the microtubule cytoskeleton | 78
